# Test results from patent publication US9371374.
# Positions count from the first letter of the chain named.
# B1: HCV 208B-1096 (antibody, V domains shown)
# VH: QVQLQQSGAGLAKPGASVKMSCKASGYTFTANKMHWAKQRPGQGLEWIGYIDPSSGYTEYNHKIQYKATLTADTSSSTAYMQLSTLTFEDSAVYYCTNFAYWGQGTLVTVSA
# VL: DIVMTQTPLTLSVTIGQPASISCKSSQSLLFTNGKTYLNWFLQRPGQSPKRLIYLLSKLDSGVPDRFSGSGSGTDFTLKISRVEAEDLGVYYCLQSTYFPLTFGAGTKLELKR
# B2: HCV 208B-395 (antibody, V domains shown)
# VH: B1 VH with A37T, E59Q, Y66D, T85S
# VL: DIVLTQSPATLSVTPGDRVSLSCRASQRIYNYLHWYQQKSHESPRLLIKYASQSISGIPSRFSGSGSGTDFILTINSVETEDFGMYFCQQSNSWPLTFGAGTKLELRR
# B3: HCV 208A-877 (antibody, V domains shown)
# VH: QLQQSGPELVKPGASVKISCKTSGYTFTENAMHWVKQSRGKSLEWIGGVNPNNGDTVYTQKFKGKATLTVAKSSSTAYMELRTMTCEESTVYYCASREPDFFDYWGQGSSVTVSS
# VL: QIVLTQSPAIMSVSPGEKVSMTCSASSSVTYMHWYQQKSGTSPKRWIYDTSELASGVPARFSGSGSGTTYSLTISSMEAEDAATYYCQQWSNKPLTFGAGTKLELKR
# B4: HCV 208B-1094 (antibody, V domains shown)
# VH: EVQLQQSGPELVKPGASVKISCKTSGYTFTEYAMHWMKQSHGKSLEWIGGINPTNGDTIYNQRFKDKAKLTVDRSSSTAYMELRSLTSDDSALFYCARRELDYFASWGQGTTLTVSS
# VL: DIVLTQSPASLIVSLGQTATISCRASQSLSTSRFSYVHWIQQKPGQPPKLLIKYASNLESGVPVRFSGSGSGTDFTLNIHPVEEEDTATYFCQHSWEFPFTFGSGTKLKIKR
# B5: HCV 208A-638 (antibody, V domains shown)
# VH: QGQLQQPGAEFVKPGASLKLSCRASGYTFTSYWIHWVKQRPGQGLEWIGEVDPSDSYINQNEKFRGKATLTVDKSSSTAYMQLGSLTSEDSAVYYCARHYYGVLDSWGQGTALTVSS
# VL: QIVLTQSPTIMSASLGERVTMTCTASSSVSSSYLHWFQQKPGSSPKLWIYSTSNLASGVPPRFSGSGSGTSYSLSISSVEAEDVATYYCLQFHRSPWTFGGGAKLEIKR
# B6: HCV 208A-222 (antibody, V domains shown)
# VH: EVQLQQSGPELEKPGASVRISCKTSGYTFTEYAMHWVKQSHGKSLEWIGGINPNNGNAIYNQIFKDKATLTVDRSSSTAYMGLRSLTFGDSGVYFCVRRQLDYFDYWGQGASLTVSS
# VL: DIVVTQSPASLAVSLGQRATISCRASQSVSTSRYSYLHWYQQKPGQPPKLLIKYASNLESGVPARFSGSGSGTDFTLNIHPVGEEDTATYYCQHSWEFPFTFGSGTKLEIKR
# B7: HCV 208A-741 (antibody, V domains shown)
# VH: QLQQSGPVLVKPGASVMISCKTSGYTFTENAMHWVKQSHGKSLEWIGGVNPNNGDTIFNQKFKGKATLTVDKSSSTAFMELRSLTSEESTVYYCVRRELDFFDYWGQGTSVTVSS
# VL: B6 VL with V4L, A19T, R24G, Y34F, L37M, G83A, T89A
# B8: HCV 208A-557 (antibody, V domains shown)
# VH: QGQMQQSGAELVKPGASVKLSCKTSGFTFSSSYISWLKQKPGQSLEWIAWIYAGTGNTNYNQKFTDKAQLTVDTSSSTAYMQLSSLTTEDSAIYYCAISGTGFTYWGQGTLVTVSA
# VL: B6 VL with V3A, V4L, L37M, K49E, E97D
# B9: HCV 208A-293 (antibody, V domains shown)
# VH: B4 VH with T24A, Y27F, T58A, R63K, A105P
# VL: B4 VL with T18R, L29V, T76I, K109E
# B10: HCV 208A-830 (antibody, V domains shown)
# VH: EVRLQQPGPEVEKPGASVKISCKTSGYTFTEYAIHWVKQSHGESLEWIGGINPSNGDPIYNQIFKDKATLTVDRSSNTAYMGLRSLTVGDSGVYFCVRRQLDYFDFWGQGASLTVSS
# VL: B6 VL with V4L, A25S, T87P
# B11: HCV 208B-251 (antibody, V domains shown)
# VH: B7 VH with M17K, F58Y, T90P, Y93F
# VL: B6 VL with V4L, Q17K, R18K, L37M, Q46H, G83A, T89A
# B12: HCV 208A-605 (antibody, V domains shown)
# VH: B6 VH with R19K, M34I, K43M, N54S, Y103F
# VL: B6 VL
# B13: HCV 208A-352 (antibody, V domains shown)
# VH: B8 VH with Y33F, L83F
# VL: DVLMAQTPLSLPVTLGDQASISCRSSQSLVHSNGNTYLEWFLQKPGQSPKLLIYNVSNRFSGVPDRFSGSGSGTDFTLKISRVEAEDLGVYYCFQGSHVPLTFGSGTKLEIKR
# B14: HCV 208B-1024 (antibody, V domains shown)
# VH: EVQLVESGGDLVKPGGSLKLSCAASGFTFSNYGMSWVRQTPDKRLEWVATISSGGSYSYYPDSVKGRFTISRDNAKNILYLQMSSLKSEDTAMYYCASLYYGYGDYWGQGTAFTVSS
# VL: B13 VL with A5T, T14S, L29I, F41Y, P45L, N55R, L101W, S105G
# B15: HCV 208B-281 (antibody, V domains shown)
# VH: B8 VH with M4L, K40R, N57G, L83F, T104I
# VL: B13 VL with A5T, T14S, S32N, N55K, L101F
# B16: HCV 208B-189 (antibody, V domains shown)
# VH: QVHLQQSGAELAKPGASVQMSCKASGYTFTANKMHWARQRPRQGLEWIGYIDPASGYTEYNQKIKDRATLTADKSSSTAYMQLSSLTSEDSAVYYCTNFAYWGQGTLVTVST
# VL: not shown
# B17: HCV 208B-327 (antibody, V domains shown)
# VH: EVQLVESGGGLVKPGGSLKLSCAASGFTFSDSYMYWVRQTPDQRLEWVATISDGGSYTFYPDSVKGRFTISRDNAQNNLYLQMSSLKSEDTAMYYCASPHAGYFGWFAYWGRGTLVTVSA
# VL: DIVMTQAAFSNPVTPGTSVSISCRSSKSLLHSNGITYLYWYLQKPGQSPQLLIYQMSKIASGVPDRFRSSGSGTDFTLRISRVEAADVGVYYCAQNLELPWTFGGGTKLEIKR
# B18: HCV 208B-178 (antibody, V domains shown)
# VH: DVKLVESGGGLVKLGGSLKLSCAASGFTFSSYYMSWVRQTPEKRLELVAAINSNGGSTYYPDTVKGRFTISRDNAKNTLYLQMSSLKSEDTALYYCARHGGLGRRDWYFDVWGAGTTVTVSS
# VL: DIVLTQSPASLAVSLGQRATISCRASESVDNYGISFMHWYQQKPGQPPKLLIYRASNLESGIPARFSGSGSRTDFTLTINPVETDDVATYYCQQSNKDPFTFGSGAKLEIKR
# B19: HCV 208A-422 (antibody, V domains shown)
# VH: DVQLQESGPGLVNPSQSLSLTCSVTGYSITSGYYWIWIQQSPGNKLEWMGYIKYDGGNNYSPSLKNRISIARDTSKNQCFLKLNSVTIEDTATYYCTRGSDSFDYWGQGTTLTVSS
# VL: DIVLTQSPASLAVSLGQRAIISCKASQSVSFAGTNLMHWYQQKPGQQPKLLIYRASNLETGVPTRFSGSGSRTDFTLNIHPVEEDDAATYYCQQSREYYTFGGGTKLEIKR
# B20: HCV 208A-442 (antibody, V domains shown)
# VH: B19 VH with Q39R, S41F, C79F
# VL: B19 VL
# What was measured:
# Assay in all cases: EIA, captured mAb
# [1] = target: biotinylated HCV core peptide 134-154 (Peptide 1) (HCV-1)
# [2] = target: biotinylated HCV core peptide 141-161 (Peptide 2) (HCV-1)
# [3] = target: biotinylated HCV core peptide 151-171 (Peptide 3) (HCV-1)
Binder,Reactivity (OD492) [1] [OD],Reactivity (OD492) [2] [OD],Reactivity (OD492) [3] [OD]
B1,0.34,0.13,3.56
B2,0.54,0.13,3.69
B3,0.06,1.21,0.05
B4,0.12,3.28,0.13
B5,0.07,2.96,0.09
B6,0.06,2.7,0.08
B7,1.2,3.37,0.06
B8,0.05,2.41,0.06
B9,0.08,2.42,0.11
B10,0.07,2.88,0.08
B11,0.11,2.35,0.41
B12,0.22,3.71,0.16
B13,1.08,0.07,0.06
B14,0.08,0.75,0.15
B15,1.48,0.16,0.12
B16,0.55,0.15,3.95
B17,0.07,0.05,0.49
B18,0.1,0.07,1.69
B19,0.05,0.84,0.1
B20,0.08,3.04,0.06
